In PMC32300:
Each block holds one substance with its values, some of them ahead of it.

How the values were obtained:
[1] = target: RPTPα-516-XFP (RPTPα-516-CFP and RPTPα-516-YFP); experiment: FRET or BRET
RPTPα-P137C [2] = experiment: non-reducing SDS-PAGE
RPTPα-P137C [3] = experiment: cross-linking
[4] = target: RPTPα-200-XFP (RPTPα-200-CFP and RPTPα-200-YFP); experiment: cross-linking
[5] = target: RPTPα-P137C-XFP (RPTPα-P137C-CFP and RPTPα-P137C-YFP); experiment: FRET or BRET
[6] = target: full length RPTPα-XFP (RPTPα-CFP and RPTPα-YFP); experiment: FRET or BRET
[7] = target: full length RPTPα-XFP (RPTPα-CFP and RPTPα-YFP); experiment: cross-linking

RPTPα-516-XFP (RPTPα-516-CFP and RPTPα-516-YFP), sequence (P18052 20-829): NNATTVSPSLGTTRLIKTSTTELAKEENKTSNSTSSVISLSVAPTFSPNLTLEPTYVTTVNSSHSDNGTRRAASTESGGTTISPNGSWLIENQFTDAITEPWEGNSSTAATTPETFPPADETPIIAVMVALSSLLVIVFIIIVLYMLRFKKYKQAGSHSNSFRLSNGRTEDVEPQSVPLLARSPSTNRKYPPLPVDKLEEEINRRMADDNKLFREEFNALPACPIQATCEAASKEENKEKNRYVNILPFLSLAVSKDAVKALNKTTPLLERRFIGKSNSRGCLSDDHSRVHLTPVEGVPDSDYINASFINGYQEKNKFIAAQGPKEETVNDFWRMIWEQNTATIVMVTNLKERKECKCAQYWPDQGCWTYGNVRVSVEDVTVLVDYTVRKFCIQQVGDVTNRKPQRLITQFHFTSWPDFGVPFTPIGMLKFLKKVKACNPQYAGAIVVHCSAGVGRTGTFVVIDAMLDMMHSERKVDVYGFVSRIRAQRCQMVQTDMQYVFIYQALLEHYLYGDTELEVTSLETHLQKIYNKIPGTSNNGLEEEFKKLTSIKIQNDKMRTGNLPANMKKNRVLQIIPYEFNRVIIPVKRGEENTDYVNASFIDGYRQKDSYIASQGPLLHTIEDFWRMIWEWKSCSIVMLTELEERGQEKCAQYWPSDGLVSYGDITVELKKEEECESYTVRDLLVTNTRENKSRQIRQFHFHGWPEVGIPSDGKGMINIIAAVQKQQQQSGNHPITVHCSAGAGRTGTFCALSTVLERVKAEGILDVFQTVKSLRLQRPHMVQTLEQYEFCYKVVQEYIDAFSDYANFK
RPTPα-200-XFP (RPTPα-200-CFP and RPTPα-200-YFP), sequence (P18052 20-829): as above

F(440)/F(490) ratio [1]: 0.46
Substance: RPTPα-516-XFP (RPTPα-516-CFP and RPTPα-516-YFP) (domain or fragment)

percent in the dimeric form (RPTPα-P137C [2]): > 80% | percent cross-linked by BS3 (RPTPα-P137C [3]): < 10%
Substance: RPTPα-P137C (receptor)

stoichiometry N [4]: 2
Substance: RPTPα-200-XFP (RPTPα-200-CFP and RPTPα-200-YFP) (domain or fragment)

F(440)/F(490) ratio [5]: 0.5
Substance: RPTPα-P137C-XFP (RPTPα-P137C-CFP and RPTPα-P137C-YFP) (receptor)

CFP fluorescence lifetime (τφ) [6]: 2.2 ns | stoichiometry N [7]: 2
Substance: full length RPTPα-XFP (RPTPα-CFP and RPTPα-YFP) (receptor)
